According to PMC10746202:

Tests used:
[1] = biological target: lactoferrin (Homo sapiens) (UniProt P02788); details: cited from earlier work
[2] = biological target: recombinant WU2 (r)PspA possessing only αHD and PRD (Streptococcus pneumoniae serotype 3 strain WU2); experiment: SPR; Biacore T200; kinetic study, LF at several concentrations in PBS-P+ injected over rPspA amine-coupled to a CM5 chip; 25°C; fitted to a two-state binding curve

Substance	Kd [1]	Kd [2]
mGAPDH (from UniProt P04406)	43.8 nM	
recombinant lactoferrin (from UniProt P02788 20-710) (natural protein)		3.89 nM
